The record followed here is patent US20170128564A1, “P[…] FROM gp41, A VACCINE COMPOSITION COMPRISING SAID POLYPEPTIDE, AND USES FOR TREATING AN INFECTION BY AN HIV VIRUS IN AN INDIVIDUAL” (INSTITUT NATIONAL DE LA SANTE ET DE LA RECHERCHE MEDICALE …, priority 2003, published 2017).

One data set deals with CD4+ T cells. Briefly: NK cytotoxicity 51Cr-release assay, treated CD4+ T cells as targets of activated autologous purified NK cells. The format is cell-based, human. As for the experimental part: NK lines were generated from PBMC, and then purified using the StemSep cell separation system and the NK cell enrichment antibody cocktail (StemCell technologies). NK purified cells were cultured in MyeloCult H5100 medium (StemCell technologies) supplemented with 100 units rhlL-2 (Boheringer). The purity of these preparations was evaluated by flow cytometry after staining with anti-CD3 (BD), anti-CD56 (BD), anti-NKp44, and anti-NKp46 mAbs.
The cytololytic activity was assayed in 4-h ^51Cr-release assay as previously described. Briefly, the target cells were labeled for 2-h at 37° C. with 100 μCi per 10^6 cells Na^51Cr (Amersham), and washed twice with culture medium. The target cells were then distributed in round-bottomed 96-well microtiter plates (4×10^3 cells per well), and the effector cells were added at several E/T ratio. The plates were incubated 4-h at 37° C. The supernatant were then collected and ^51Cr-release was measured in a gamma counted. In experiments in which Abs were included, these were added to final concentration of 20 μg/ml. The relative specific ^51Cr-release was calculated as previously described. Values for spontaneous ^51Cr-release, which are deducted in the calculation, were between 10 and 20% of the total incorporated radioactivity. The results are presented after subtraction of the nonspecific lysis obtained with control targets. […]

Data set [1] relates to NKp44L expression on purified CD4+ T cells. The format is cell-based, human. The following applies: preliminary experiment with the 6-mers peptide.
The next data set has as its target T1, NKp44L (Homo sapiens, UniProt Q8IZD2).
T1 construct: endogenous in cells; host or cells: U2 cells, uninfected or chronically infected with HIV-1 Sf2
T1 sequence (Q8IZD2 1-1168 isoform Q8IZD2-8 K496E/T516A): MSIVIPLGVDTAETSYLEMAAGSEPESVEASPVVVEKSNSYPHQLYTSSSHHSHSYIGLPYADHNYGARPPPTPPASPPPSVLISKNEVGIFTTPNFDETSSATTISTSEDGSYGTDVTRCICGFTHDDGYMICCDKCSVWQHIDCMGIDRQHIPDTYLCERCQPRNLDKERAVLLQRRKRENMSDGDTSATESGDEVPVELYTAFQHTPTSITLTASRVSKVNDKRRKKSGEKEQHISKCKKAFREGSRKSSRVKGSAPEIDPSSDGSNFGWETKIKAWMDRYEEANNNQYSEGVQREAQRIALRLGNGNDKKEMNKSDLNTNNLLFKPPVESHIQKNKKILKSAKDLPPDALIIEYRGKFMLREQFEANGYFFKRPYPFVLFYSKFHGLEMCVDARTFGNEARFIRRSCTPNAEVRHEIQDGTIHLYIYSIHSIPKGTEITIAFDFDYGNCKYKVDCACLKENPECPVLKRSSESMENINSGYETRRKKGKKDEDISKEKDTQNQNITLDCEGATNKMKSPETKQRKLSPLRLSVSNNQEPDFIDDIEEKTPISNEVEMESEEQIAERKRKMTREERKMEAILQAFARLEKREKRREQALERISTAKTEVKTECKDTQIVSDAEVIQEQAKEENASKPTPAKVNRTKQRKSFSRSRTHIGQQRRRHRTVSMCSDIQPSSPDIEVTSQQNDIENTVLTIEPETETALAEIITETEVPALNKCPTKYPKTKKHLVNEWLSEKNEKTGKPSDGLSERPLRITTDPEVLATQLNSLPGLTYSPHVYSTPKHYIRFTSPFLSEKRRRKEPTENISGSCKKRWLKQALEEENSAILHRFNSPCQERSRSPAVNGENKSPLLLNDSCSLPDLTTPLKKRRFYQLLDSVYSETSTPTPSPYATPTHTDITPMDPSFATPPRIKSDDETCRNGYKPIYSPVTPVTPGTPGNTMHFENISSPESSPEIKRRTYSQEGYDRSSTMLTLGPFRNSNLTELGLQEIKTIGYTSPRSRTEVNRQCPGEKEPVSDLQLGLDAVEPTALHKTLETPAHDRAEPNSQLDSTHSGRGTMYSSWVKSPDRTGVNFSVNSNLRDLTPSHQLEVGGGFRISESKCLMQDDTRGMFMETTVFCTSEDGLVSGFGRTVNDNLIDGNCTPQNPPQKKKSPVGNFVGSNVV
Description: Staining of U2 cells with #7.1 mAb, flow cytometry, and competition with NCR-Ig fusion proteins. Type of data set: binding. The following applies: HIV-1-infected U2 cells previously stained with fusion protein (FIG. 8C). As for the experimental part:
8B) Cell surface expression of NKp44L detected with #7.1 mAb. Uninfected (UI) and HIV-1-infected (Sf2) U2 cells were incubated with 1 μg/ml of #7.1 mAb (black line) or with the IgM isotype control (dotted line) and analyzed by flow cytometry.
8C) #7.1 mAb inhibits NKp44-Ig binding. HIV-1-infected U2 cells that had previously been stained with either […] of NKp44-Ig fusion protein (lower panel; black line) or control NKp46-Ig fusion protein (upper panel; black line) were incubated with #7.1 mAb (gray line) or IgM isotype control (dotted line) for 1!h at 4° C. and washed twice in 1% PBS-BSA. The cells were then analyzed by flow cytometry. Percentage of cells expressing NKp44L, after NCR-Ig incubation, is noted.
Anti-NKp44 (44/8; IgG1) and anti-NKp44L mAb (#7.1; IgM) were obtained from 5-weekold BalB/c mice immunized with the ClonaCell-HY hybridoma cloning kit, according to the manufacturer's instructions (StemCell Technologies Inc.). The anti-mouse-peroxidase hybridoma screening reagent (Roche) and ELISA were used to select antibodies. Anti-NKp44 (44/8) mAb was prepared by immunizing the mice with NKp44-Ig protein, after specific deletion of the IgG1 human Fc fragment. […] All hybridomas were analyzed with 51Cr cytotoxic assays with untreated or acid-treated 721.221 cells as targets, and the specificity of the anti-NKp44 hybridoma was analyzed by ELISA with different fusion proteins. […]
(In flow cytometry, cells or beads pass a laser one at a time.)

No end group written: not given here.

For the molecule PWASNASWSNKSLDDIW [gp41-C146], the NK cytotoxic activity entry in the data set on CD4+ T cells (single peptides of pool C 5 μg/ml, two days, E/T ratio 40/1 (FIG. 4A)) is reported as “strongly increased”.

Consider SWSNKS [NH2-SWSNKS-COOH, SWSNKS], for which the “cell surface expression of NKp44L” value in data set [1] was “any increased”. For the same molecule, in the data set on CD4+ T cells (preliminary experiment with the 6-mers peptide), the NK cytotoxic activity result is “any increased”.

B1: NKp44-Ig fusion protein: NKp44-Ig NCR-Ig fusion protein (protein)
chain: QSKAQVLQSVAGQTLTVRCQYPPTGSLYEKKGWCKEASALVCIRLVTSSKPRTMAWTSRFTIWDDPDAGFFTVTMTDLREEDSGHYWCRIYRPSDNSVSKSVRFYLVVSPASASTQTPWTPRDLVSSQTQTQSCVPPTAGARQAPESPSTIPVPSQPQNSTLRPGPAAPIA
modifications: left off: a dimerising Fc or GST
For the molecule B1, in the data set with NKp44L, the “effect of NCR-Ig fusion protein on #7.1 mAb staining” value is listed as “Inhibition”.
